Assay in all cases: cell-based or functional assay
The target of experiment [1] is recombinant CRH R2 beta expressed in 293T cells (UniProt Q13324).
Experiment [2] concerns the target recombinant CRH R2-alpha expressed in 293T cells (UniProt Q13324).
The target of experiment [3] is recombinant CRH R2 expressed in 293T cells (isoform not stated, Fig. 3f), Q13324.

Ends that are not written are not given here. Some results are limits rather than exact numbers.

recombinant CRH R2 expressed in 293T cells (isoform not stated, Fig. 3f), Q13324, sequence (Q13324 20-411): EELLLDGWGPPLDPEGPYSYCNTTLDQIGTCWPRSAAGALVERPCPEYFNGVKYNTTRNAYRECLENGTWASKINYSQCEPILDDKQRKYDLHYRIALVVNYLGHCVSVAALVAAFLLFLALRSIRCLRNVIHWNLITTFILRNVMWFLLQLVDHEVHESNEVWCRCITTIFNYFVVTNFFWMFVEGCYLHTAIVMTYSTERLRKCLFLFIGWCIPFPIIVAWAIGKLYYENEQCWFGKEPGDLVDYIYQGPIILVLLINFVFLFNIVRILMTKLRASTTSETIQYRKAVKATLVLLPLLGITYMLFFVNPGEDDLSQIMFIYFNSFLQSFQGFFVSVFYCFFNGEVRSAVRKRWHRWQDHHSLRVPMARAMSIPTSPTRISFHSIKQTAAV

With “stresscopin 1 (full-length 43-amino-acid mature peptide, synthetic, amidated)”, the potency in cAMP production, compared to stresscopin 2 and the pufferfish peptide in experiment [1] and in experiment [2] was more than 10 fold each time. Turning to HPGSRIVLSLDVILGLLQILLEQARARAAREQATTNARILARV-OH [SCP1-NA, full-length stresscopin 1 devoid of amidation at the C-terminus], in experiment [3], the reduction in ability to stimulate cAMP production, against amidated stresscopin 1 was more than 50 fold.

For the origin of these results see patent US20020082409A1.
